According to patent US20210330742A1 (RUN X, published 2021):

Biological target: CDK4 (UniProt P11802 2-303)
Assay: co-IP and immunoblot, time course after serum stimulation
Procedure: FIG. 2a is a diagram confirming that E2F1 was combined with RUNX3 by measuring the time-dependent formation of BRD2-RUNX3, E2F1-RUNX3, CDK4-RUNX3, Cyclin D1-RUNX3, HDAC4-RUNX3, p16INK4a-CDK4, p21-CDK4, Cyclin D1-CDK4 and HDAC4-CDK4 complexes by immunoprecipitation (IP) and immunoblotting (IB), and the time-dependent phosphorylation of pRB (at Ser-795) and ERK1/2 by immunoblotting (IB).
Transient transfection was performed in all cell lines using lipofectamine plus reagent and lipofectamine (Invitrogen). Cell lysates were incubated with an appropriate monoclonal or polyclonal antibody (2 μg of antibody/500 μg of lysate sample) at 4° C. for 3 hours, followed by incubation with protein G-Sepharose beads (Amersham Pharmacia Biotech, Piscataway, NJ, USA). For the detection of endogenous proteins at 4° C. for 1 hour, the lysate was incubated with an appropriate monoclonal or polyclonal antibody (1:1000-1:3000) at 4° C. for 6 to 12 hours, and then protein G-Sepharose beads (Amersham Pharmacia Biotech) were […] at 4° C. for 3 hours. The immune precipitate was […] on an SDS-polyacrylamide gel electrophoresis (SDS-PAGE) gel and transferred to a PVDF membrane (Millipore, Billerica, Mass., USA). […]

Sequence of CDK4 (P11802 2-303 limits assumed): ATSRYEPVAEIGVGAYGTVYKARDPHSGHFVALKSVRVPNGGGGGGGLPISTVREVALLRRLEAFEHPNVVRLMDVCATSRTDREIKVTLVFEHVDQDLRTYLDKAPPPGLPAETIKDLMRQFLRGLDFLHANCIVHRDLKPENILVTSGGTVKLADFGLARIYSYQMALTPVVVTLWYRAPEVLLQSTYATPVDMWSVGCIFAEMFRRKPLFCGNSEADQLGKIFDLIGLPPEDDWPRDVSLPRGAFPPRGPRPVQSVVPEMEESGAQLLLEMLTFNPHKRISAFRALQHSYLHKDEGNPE

B1: p16INK4a (other, UniProt P42771 1-156, looked up)
chain: MEPAAGSSMEPSADWLATAAARGRVEEVRALLEAGALPNAPNSYGRRPIQVMMMGSARVAELLLLHGAEPNCADPATLTRPVHDAAREGFLDTLVVLHRAGARLDVRDAWGRLPVDLAEELGHRDVARYLRAAAGGTRGSNHARIDAAEGPSDIPD
  binding result: binds
